According to PMC12886537, “Dual-mode aptamer-driven biosensing platform for ultrasensitive and mutation-resilient detection of the SARS-CoV-2 nucleocapsid protein”:

B1: NP1 (ssDNA)
DNA: TTTTTAACACGACCTCACTGTGCCGGCCACAGCTCACCACAGTGGGCCCATG
B2: NP14 (structured_DNA)
DNA: TTTTTAACACGACTCTCCTGTGGCCAGCGAACTGATTGCCTGTCGTGCCATG
B3: NP11 (ssDNA)
DNA: TTTTTAAGCCCACTTTTCTGTGCCGGGCACAGCATGGGCTTGTCGTGCCATG

Experiments:
[1] = target: T1, SARS-CoV-2 nucleocapsid (N) protein (SARS-CoV-2 (original/prototype), UniProt P0DTC9 1-419); assay: SPR; single concentration; details: protein: recombinant; tags: His; chain copies: 2
SARS-CoV N protein = SARS-CoV N protein (SARS-CoV, UniProt P59595 1-422); details: protein: commercial, chain copies: 2
[2] = target: T1, SARS-CoV-2 nucleocapsid (N) protein; assay: ELONA; details: protein: recombinant; tags: His; chain copies: 2; label: biotin (ELONA); 5'-FAM (flow cytometry, confocal)

Binder	binding result [1]	binding result (SARS-CoV N protein)	also measured
B1	binds	–	–
TTTTTAACACGACTCTCCTGTGGCCAGCGAACTGATGTGCCATG (structured_DNA) [NP14b]	–	binds	–
B2	–	–	Kd [2]: 3.68 nM; Kd (SARS-CoV N protein; label: biotin (ELONA), 5'-FAM (flow cytometry, confocal)): 3.45 nM
B3	binds	–	–
TTTTTAACACGACTCTCCTGTGGCATTGCCTGTCGTGCCATG (structured_DNA) [NP14a]	–	binds	–
